In the supplement of paper PMC9112550, “Optimization of the antimicrobial peptide Bac7 by deep mutational scanning” (BMC Biology, 2022):

System: Escherichia coli TOP10
Assay: shrunken log2 fold change of peptide-encoding DNA abundance (4.5 h post-induction vs induction); higher = less antimicrobial activity (less host growth inhibition)
Conditions: time post-induction: 4.5 h; library: site-saturation at positions 5, 18, 19, 20
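Also: peptides expressed intracellularly from a pBAD plasmid library in pooled LB shake-flask culture, induced with 0.3% L-arabinose, DNA abundance read by NGS, three biological replicates, DESeq2 with apeglm shrinkage.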

Sequence | shrunken log2 fold change
RRIRCRPPRLPRPRPRPTLSPRP | -0.0995
RRIRLRPPRLPRPRPRPVCLPRP | -0.0821
RRIRNRPPRLPRPRPRPGTSPRP | -0.0337
RRIRNRPPRLPRPRPRPIYYPRP | -0.977
RRIRNRPPRLPRPRPRPTKYPRP | -0.564
RRIRARPPRLPRPRPRPDSEPRP | 0.481
RRIRSRPPRLPRPRPRPDATPRP | 0.816
RRIRPRPPRLPRPRPRPWDLPRP | -0.0362
RRIRARPPRLPRPRPRPPYIPRP | -0.38
RRIRTRPPRLPRPRPRPIFDPRP | -0.337
RRIRGRPPRLPRPRPRPQCLPRP | 0.405
RRIRPRPPRLPRPRPRPPSNPRP | -0.0339
RRIRFRPPRLPRPRPRPQHCPRP | -0.461
RRIRCRPPRLPRPRPRPHNRPRP | -0.512
RRIRWRPPRLPRPRPRPEWWPRP | -0.0316
RRIRSRPPRLPRPRPRPKCEPRP | -0.125
RRIRIRPPRLPRPRPRPNDEPRP | -0.781
RRIRARPPRLPRPRPRPFSCPRP | -0.122
RRIRFRPPRLPRPRPRPVWQPRP | 0.0042
RRIRNRPPRLPRPRPRPAHGPRP | 0.047
RRIRKRPPRLPRPRPRPKPEPRP | 0.781
RRIRSRPPRLPRPRPRPMHTPRP | -0.139
RRIRDRPPRLPRPRPRPQCCPRP | 0.0263
RRIRRRPPRLPRPRPRPVCLPRP | 0.149
RRIRNRPPRLPRPRPRPWSQPRP | -0.0539

Sequence | shrunken log2 fold change
RRIRKRPPRLPRPRPRPSAWPRP | 0.534
RRIRERPPRLPRPRPRPPYMPRP | -1.73
RRIRGRPPRLPRPRPRPAHCPRP | 1.06
RRIRRRPPRLPRPRPRPEVMPRP | 0.212
RRIRGRPPRLPRPRPRPVMAPRP | 0.745
RRIRFRPPRLPRPRPRPSKNPRP | -0.519
RRIRIRPPRLPRPRPRPHCIPRP | -2.92
RRIRTRPPRLPRPRPRPVAWPRP | 0.217
RRIRERPPRLPRPRPRPMTSPRP | -0.212
RRIRYRPPRLPRPRPRPWMNPRP | -0.00197
RRIRLRPPRLPRPRPRPGFYPRP | -0.102
RRIRMRPPRLPRPRPRPNYLPRP | -0.212
RRIRERPPRLPRPRPRPISWPRP | -0.246
RRIRDRPPRLPRPRPRPNGGPRP | -0.0647
RRIRTRPPRLPRPRPRPNFHPRP | -0.19
RRIRRRPPRLPRPRPRPQMIPRP | -0.0521
RRIRQRPPRLPRPRPRPVIFPRP | -0.0797
RRIRHRPPRLPRPRPRPDEYPRP | -0.00149
RRIRCRPPRLPRPRPRPNIRPRP | -0.517
RRIRWRPPRLPRPRPRPSILPRP | -0.341
RRIRGRPPRLPRPRPRPQGMPRP | 0.0957
RRIRKRPPRLPRPRPRPNWGPRP | 0.308
RRIRRRPPRLPRPRPRPSHTPRP | 0.278
RRIRERPPRLPRPRPRPTEAPRP | 0.0834
RRIRIRPPRLPRPRPRPPVAPRP | 0.123
